The test system of data set [1] is HeLa Kyoto. The data set can be described thus: solubility in G1/S (NP-40 vs SDS abundance) (log2 ratio); higher = more soluble. The conditions noted are these: cell cycle stage: G1/S.
Data set [2] deals with HeLa Kyoto. The data set can be described thus: melting temperature (median over replicates), in situ; higher = more thermally stable.
In data set [3] the test system is HeLa Kyoto. The data set can be described thus: solubility change mitosis vs G1/S (difference of NP-40 vs SDS log2 ratios) (log2 ratio difference); higher = more soluble in mitosis.
Data set [4] has as its system HeLa Kyoto. The data set can be described thus: thermal stability score vs G1/S (z-score of summed log2 fold changes over temperatures); higher = more thermally stable than in G1/S.
The mark [5] stands for this setting: cell cycle stage: early G1 (4.5 h after nocodazole release).
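Wherever melting temperature (median over replicates), in situ is given: HeLa Kyoto cells synchronized by double thymidine or nocodazole block, proteins quantified by TMT10plex mass spectrometry, three independent biological replicates.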
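Wherever solubility change mitosis vs G1/S (difference of NP-40 vs SDS log2 ratios) is given: synchronized HeLa Kyoto cells (double thymidine block for G1/S, nocodazole release for mitosis), protein amounts in NP-40 versus SDS lysates quantified by mass spectrometry, three biological replicates.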
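Wherever solubility in G1/S (NP-40 vs SDS abundance) is given: HeLa Kyoto cells arrested at G1/S by double thymidine block, proteins quantified by TMT10plex mass spectrometry in mild NP-40 versus SDS extracts, three biological replicates.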
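Wherever thermal stability score vs G1/S (z-score of summed log2 fold changes over temperatures) is given: synchronized HeLa Kyoto cells, proteins quantified by TMT10plex mass spectrometry, three biological replicates, mitosis taken 0.5 h after nocodazole release, G1/S directly after double thymidine block.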

Take “MPKLQGFEFWSRTLRGARHVVAPMVDQSELAWRLLSRRHGAQLCYTPMLHAQVFVRDANYRKENLYCEVCPEDRPLIVQFCANDPEVFVQAALLAQDYCDAIDLNLGCPQMIAKRGHYGAFLQDEWDLLQRMILLAHEKLSVPVTCKIRVFPEIDKTVRYAQMLEKAGCQLLTVHGRTKEQKGPLSGAASWEHIKAVRKAVAIPVFANGNIQCLQDVERCLRDTGVQGVMSAEGNLHNPALFEGRSPAVWELAEEYLDIVREHPCPLSYVRAHLFKLWHHTLQVHQELREELAKVKTLEGIAAVSQELKLRCQEEISRQEGAKPTGDLPFHWICQPYIRPGPREGSKEKAGARSKRALEEEEGGTEVLSKNKQKKQLRNPHKTFDPSLKPKYAKCDQCGNPKGNRCVFSLCRGCCKKRASKETADCPGHGLLFKTKLEKSLAWKEAQPELQEPQPAAPGTPGGFSEVMGSALA [DUS1L]”: the “solubility in G1/S (log2)” value with HeLa Kyoto [1] was 0.086. Moreover, the melting temperature with HeLa Kyoto [2] (cell cycle stage: G1/S) was determined as 47.3 °C; in the data set on HeLa Kyoto [2] (cell cycle stage: mitosis), 48.9 °C. In addition, in the data set on HeLa Kyoto [3], the “solubility change mitosis (log2)” value was -0.169. For the same sequence, the thermal stability score in the data set on HeLa Kyoto [4] (setting [5]) was found to be 0.994; in the data set with HeLa Kyoto [4] (cell cycle stage: mitosis), 1.71.
With “MPLAQLKEPWPLMELVPLDPENGQTSGEEAGLQPSKDEGVLKEISITHHVKAGSEKADPSHFELLKVLGQGSFGKVFLVRKVTRPDSGHLYAMKVLKKATLKVRDRVRTKMERDILADVNHPFVVKLHYAFQTEGKLYLILDFLRGGDLFTRLSKEVMFTEEDVKFYLAELALGLDHLHSLGIIYRDLKPENILLDEEGHIKLTDFGLSKEAIDHEKKAYSFCGTVEYMAPEVVNRQGHSHSADWWSYGVLMFEMLTGSLPFQGKDRKETMTLILKAKLGMPQFLSTEAQSLLRALFKRNPANRLGSGPDGAEEIKRHVFYSTIDWNKLYRREIKPPFKPAVAQPDDTFYFDTEFTSRTPKDSPGIPPSAGAHQLFRGFSFVATGLMEDDGKPRAPQAPLHSVVQQLHGKNLVFSDGYVVKETIGVGSYSECKRCVHKATNMEYAVKVIDKSKRDPSEEIEILLRYGQHPNIITLKDVYDDGKHVYLVTELMRGGELLDKILRQKFFSEREASFVLHTIGKTVEYLHSQGVVHRDLKPSNILYVDESGNPECLRICDFGFAKQLRAENGLLMTPCYTANFVAPEVLKRQGYDEGCDIWSLGILLYTMLAGYTPFANGPSDTPEEILTRIGSGKFTLSGGNWNTVSETAKDLVSKMLHVDPHQRLTAKQVLQHPWVTQKDKLPQSQLSHQDLQLVKGAMAATYSALNSSKPTPQLKPIESSILAQRRVRKLPSTTL [RPS6KA1]”, the “solubility in G1/S (log2)” value in the data set with HeLa Kyoto [1] is 0.0398. In addition, the melting temperature in the data set with HeLa Kyoto [2] (cell cycle stage: G1/S) stood at 49.6 °C; in the data set on HeLa Kyoto [2] (cell cycle stage: mitosis), 50.2 °C. The “solubility change mitosis (log2)” value in the data set with HeLa Kyoto [3] is -0.118. The thermal stability score in the data set on HeLa Kyoto [4] (setting [5]) was 0.39; in the data set on HeLa Kyoto [4] (cell cycle stage: mitosis), 1.42.
As to “MPLGLGRRKKAPPLVENEEAEPGRGGLGVGEPGPLGGGGSGGPQMGLPPPPPALRPRLVFHTQLAHGSPTGRIEGFTNVKELYGKIAEAFRLPTAEVMFCTLNTHKVDMDKLLGGQIGLEDFIFAHVKGQRKEVEVFKSEDALGLTITDNGAGYAFIKRIKEGSVIDHIHLISVGDMIEAINGQSLLGCRHYEVARLLKELPRGRTFTLKLTEPRKAFDMISQRSAGGRPGSGPQLGTGRGTLRLRSRGPATVEDLPSAFEEKAIEKVDDLLESYMGIRDTELAATMVELGKDKRNPDELAEALDERLGDFAFPDEFVFDVWGAIGDAKVGRY [GIPC1]”, the “solubility in G1/S (log2)” value in the data set with HeLa Kyoto [1] worked out at 0.314. Moreover, the figures for the melting temperature in the data set with HeLa Kyoto [2] (cell cycle stage: G1/S) and in the data set on HeLa Kyoto [2] (cell cycle stage: mitosis) were 49.5 °C and 48.7 °C, respectively. For the same sequence, in the data set on HeLa Kyoto [3], the “solubility change mitosis (log2)” value was -0.156. The thermal stability score in the data set on HeLa Kyoto [4] (setting [5]) is -0.363; in the data set with HeLa Kyoto [4] (cell cycle stage: mitosis), 1.49.
Turning to “MPLHQLGDKPLTFPSPNSAMENGLDHTPPSRRASPGTPLSPGSLRSAAHSPLDTSKQPLCQLWAEKHGARGTHEVRYVSAGQSVACGWWAFAPPCLQVLNTPKGILFFLCAAAFLQGMTVNGFINTVITSLERRYDLHSYQSGLIASSYDIAACLCLTFVSYFGGSGHKPRWLGWGVLLMGTGSLVFALPHFTAGRYEVELDAGVRTCPANPGAVCADSTSGLSRYQLVFMLGQFLHGVGATPLYTLGVTYLDENVKSSCSPVYIAIFYTAAILGPAAGYLIGGALLNIYTEMGRRTELTTESPLWVGAWWVGFLGSGAAAFFTAVPILGYPRQLPGSQRYAVMRAAEMHQLKDSSRGEASNPDFGKTIRDLPLSIWLLLKNPTFILLCLAGATEATLITGMSTFSPKFLESQFSLSASEAATLFGYLVVPAGGGGTFLGGFFVNKLRLRGSAVIKFCLFCTVVSLLGILVFSLHCPSVPMAGVTASYGGSLLPEGHLNLTAPCNAACSCQPEHYSPVCGSDGLMYFSLCHAGCPAATETNVDGQKVYRDCSCIPQNLSSGFGHATAGKCTSTCQRKPLLLVFIFVVIFFTFLSSIPALTATLRCVRDPQRSFALGIQWIVVRILGGIPGPIAFGWVIDKACLLWQDQCGQQGSCLVYQNSAMSRYILIMGLLYKVLGVLFFAIACFLYKPLSESSDGLETCLPSQSSAPDSATDSQLQSSV [SLCO4A1]”, the “solubility in G1/S (log2)” value in the data set on HeLa Kyoto [1] stood at 0.576. The melting temperature in the data set with HeLa Kyoto [2] (cell cycle stage: G1/S) was found to be 55.2 °C; in the data set with HeLa Kyoto [2] (cell cycle stage: mitosis), 56.9 °C. Further, the “solubility change mitosis (log2)” value in the data set with HeLa Kyoto [3] was -0.143. Besides, the figures for the thermal stability score in the data set on HeLa Kyoto [4] (setting [5]) and with HeLa Kyoto [4] (cell cycle stage: mitosis) were -0.978 and -0.221, respectively.
Turning to “MPLKWKTSSPAIWKFPVPVLKTSRSTPLSPAYISLVEEEDQHMKLSLGGSEMGLSSHLQSSKAGPTRIFTSNTHSSVVLQGFDQLRLEGLLCDVTLMPGDTDDAFPVHRVMMASASDYFKAMFTGGMKEQDLMCIKLHGVSKVGLRKIIDFIYTAKLSLNMDNLQDTLEAASFLQILPVLDFCKVFLISGVTLDNCVEVGRIANTYNLTEVDKYVNSFVLKNFPALLSTGEFLKLPFERLAFVLSSNSLKHCTELELFKATCRWLRLEEPRMDFAAKLMKNIRFPLMTPQELINYVQTVDFMRTDNTCVNLLLEASNYQMMPYMQPVMQSDRTAIRSDTTHLVTLGGVLRQQLVVSKELRMYDEKAHEWKSLAPMDAPRYQHGIAVIGNFLYVVGGQSNYDTKGKTAVDTVFRFDPRYNKWMQVASLNEKRTFFHLSALKGYLYAVGGRNAAGELPTVECYNPRTNEWTYVAKMSEPHYGHAGTVYGGVMYISGGITHDTFQKELMCFDPDTDKWIQKAPMTTVRGLHCMCTVGERLYVIGGNHFRGTSDYDDVLSCEYYSPILDQWTPIAAMLRGQSDVGVAVFENKIYVVGGYSWNNRCMVEIVQKYDPDKDEWHKVFDLPESLGGIRACTLTVFPPEETTPSPSRESPLSAP [KLHL13]”, the “solubility in G1/S (log2)” value in the data set with HeLa Kyoto [1] was -0.13. Also, the values for the melting temperature with HeLa Kyoto [2] (cell cycle stage: G1/S) and with HeLa Kyoto [2] (cell cycle stage: mitosis) were 52.2 °C and 50.4 °C, respectively. Besides, the “solubility change mitosis (log2)” value with HeLa Kyoto [3] is -0.128. For the same sequence, the thermal stability score with HeLa Kyoto [4] (setting [5]) is -0.01; in the data set on HeLa Kyoto [4] (cell cycle stage: mitosis), 0.108.

The values are drawn from the supplement of paper PMC5998384.
